# According to the supplement of paper PMC9170038:
# Tested on: K4 kissing-loop RNA reporter
# Test: apparent KD of K4 kissing-loop reporter; higher = weaker reporter binding
# Conditions: Eterna round: R107
# Description: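 RNA-MaP round R107: designed RNA switches with theophylline, tryptophan, arginine or FMN aptamers are transcribed on-chip within common flanks. They are titrated with a labelled K4 kissing-loop RNA reporter in RNA-MaP buffer (100 mM Tris pH 7.5, 80 mM KCl, 4 mM MgCl2), without ligand or with the indicated ligand. Median apparent KD per design.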
# [1] = input ligand: theophylline 20 uM
# [2] = input ligand: tryptophan 2.4 mM
# 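Also: bound reporter read as fluorescence of individual clusters on recovered sequencing chips by microscopy, with normalized cluster intensities fitted with a binding model.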
Sequence,apparent KD of K4 kissing-loop reporter (input ligand: FMN 200 uM) [nM],apparent KD of K4 kissing-loop reporter (input ligand: arginine 13.2 mM) [nM],apparent KD of K4 kissing-loop reporter (input ligand: none) [nM],apparent KD of K4 kissing-loop reporter [1] [nM],apparent KD of K4 kissing-loop reporter [2] [nM]
AUUUUGGUUUAGAGUGAUGUUCCUUGUAUUCGAGGACCGGUACGGCCGCCACUCGGGUAGAAAAGAAAAGAAAUGUUUGAUUUUU [BDazzled - #9 SS Tryptophan A],282,102,210,222,290
GUAUCGCUAGGAGGAUAUUUCAAAUAAUAAAUAAAUGGAUAUUCGGAGUGAUGUUCCGAUUUACGGAAAGAAGGCCUAGUGAUAC [FMN B 2],135,143,157,137,150
AUAAAUUUGUAGUGAUGUUGCAAGUUAGUCAAGGAUAUCAGGAAACUGAGAAGGUGAUAUCUCCUUUACUUGCAACUAGGAGGAG [KL-SSFMN-A11],88,87.3,91,90.8,85.7
UGUACCGAGUCAGGAUAUGCCGUCGAAAGACGAAAGCAGUGAUGUUGCAUCGAUCGAAAGAUCGUUGCAGAAGGGACUUGGUACU [FmnBS 23 #SwitchBubble #StaticStem #DoubleMagnetSystem],873,164,244,158,297
CUUCUCCUUCCAAUCUCGGCCAACACGGGACGAGGACCGGUACGGCCGCCACUCGUGCAGUGAUGUUGCACGAUGGUGACGGAGA [Queronmaan],95.7,87.6,94.2,86.9,217
AAAUUGUUUAGAGGAUAUUCUUUAUUCGACAUAACCUUCUAUAAGGUGCAGUGAUGUUGCAAUAUAGGAGAAGGCUGAGCGAUAA [Exclusion FMN B Gf 14],311,177,217,196,178
UCGAAAUGCGUCUCCUAGUUUCUCCGGGAAGGAGCGUGGAUAACCGCAGGUAGGUCGCCCGGGAGCCGGACCAGUGAUGUUGGUC [Exclusion Arginine A Gf 30],181,211,197,207,164
AUUUUUUUAUCAGGAUAUUAGUGUUGGUUUGUUUUGUUAGUGAUGUUGAUAUUUGUUUUAUGUAUUUAAGAAGGGAUUUAGAUGU [viuupullin],270,243,270,371,194
GGUGCUGUCUGUGCCGCCCUCCUCGUUCCUCGAGGACCGGUACGGCCGCCACUCGAGUGAUGUUCGGGUAGCGAUCCCUGCUAGC [Bdazzled - #17 Exc. Tryptophan A],221,176,207,191,204
GCGCGCGGCGGAGGAUAUAGCAGGUGAUCCGAGAAAGUGAGUGAUGUUUACGGAGAUGAUGAUAUGUUAGAAGGCCGCCGCGCGC [abcdefghijklmnopqrstuv],515,416,437,425,558
AGGUCCGAGCCCGGAAGGGCUCGGACCUGUUAGGAUAUGACGUUAUUCAGAAGGGAUGGGUGGAGUGAUGUUCCACCCGCAAGGG [#2 Same State - FMN A Attempt #9 (HarryS)],70,96.3,111,102,86.5
AGUGAUAUAUGAGGAUAUGGGUUUGUUAAAGAGUUAGUUUUAGUGUUGUUUGGUUAGUGAUGUUAUUUAGAAGGCGUGAGUGAUG [foopmullin],97.2,82.5,76,115,72.9
AUAUGCAGGAGAAGGAGCGUCGUUGCAAGUGAUGUUUGCAAGCGAGCUUACUAUAUACGACGACAGGUAGGUCGCUCCUGCGUAA [Arg B Ex t2],68.8,61.7,64.8,58.1,67.2
AGCCGAAAGGCGAGUGCUGUCGCUCCGGAAGGAGCGCAGGAAACUGCAGGUAGGUCGCCGGAGUGAUGUUUUGGUGCAGCACUCA [Omei KL Arginine A Exc B v7],163,218,129,132,134
ACGCGCGCGAGUGAUGUUCGGAGCGGCUGGCAGGAUAUGUAGCAAUGCAGAAGGGUCGUGGCGCUCCCUCCUGAAGGAGGGAGCG [#2 Exclusion - FMN A Attempt #25 (HarryS)],198,307,351,432,347
GCAUAGGCCCAUCGGAAUUCGAGACCAGCACGAGGACCGGUACGGCCGCCACUCGUGCAGUGAUGUUGCACGAUUGGGAAACCGC [Beanveceti],115,100,101,104,111
